According to US20170209529A1 (BRIGHAM AND WOMEN S HOSPITAL, published 2017):
Several values for one entry are separate records, joined by “and”; a condition that tells them apart may be missing. Equal entries are not always repeated. Bridge positions count the residues as written; N and C are the ends.

Target: T1, soluble human FcRn (shFcRn) (human, UniProt P55899 24-297; P61769 21-119)
T1 construct: For crystallography it was expressed in CHOK1SV cells and deglycosylated with PNGaseF; biotinylated for phage selection; also called hFcRn/β2m; FcRn-biotin
Assay: SPR (Biacore), immobilized shFcRn, pH 6, steady-state fit

| Binder | Kd |
| --- | --- |
| Ac-VMKCWWDEEMLCRAF-NH2 (disulfide 4-12 (inferred)) [SYN1532] | 0.154 µM |
| Ac-VMKCWWDEEMLCRYF-NH2 (disulfide 4-12 (inferred)) [SYN1539] | 0.104 µM |
| Ac-VMHCWWDEEMLCRAF-NH2 (disulfide 4-12 (inferred)) [SYN1533] | 0.558 µM |
| Ac-VMKCWWDEEMLCRAV-NH2 (disulfide 4-12 (inferred); not fully specified) [SYN1540B] | 0.702 µM |
| Ac-VMHCFWDEEFKCDQG-NH2 (disulfide 4-12 (inferred)) [SYN1197] | 0.74 µM |
| Ac-VMHCFWDEAFRCDQG-NH2 (disulfide 4-12 (inferred)) [SYN1382] | 4.4 µM |
| Ac-VMHCFWDEEFKCDYG-NH2 (disulfide 4-12 (inferred)) [SYN1259] | 0.091 µM |
| Ac-VMHCFWDEAFKCDQG-NH2 (disulfide 4-12 (inferred)) [SYN1216] | 3.6 µM |
| Ac-VMHCFWDEEFKCDQV-NH2 (disulfide 4-12 (inferred)) [SYN1260] | 0.3 µM |
| Ac-VMACFWDEEFKCDQG-NH2 (disulfide 4-12 (inferred)) [SYN1215] | 2.84 µM |
| Ac-YMHCFWDEEFKCDQG-NH2 (disulfide 4-12 (inferred)) [SYN1256] | 0.72 µM |
| Ac-AGVMKCWWDEEMLCRAFGTGGGK-NH2 (disulfide 6-14 (inferred)) [SYN531] | 0.45 µM and 0.3 µM |
| Ac-AMTCKWDDGFSCEYV-NH2 (disulfide 4-12 (inferred)) [SYN1144] | 1.25 µM |
| Ac-YMTCKWDDAFSCEYV-NH2 (disulfide 4-12 (inferred)) [SYN1151] | 1.5 µM and 0.83 µM |
| Ac-YMTCKWDDGFSCEYA-NH2 (disulfide 4-12 (inferred)) [SYN1156] | 0.58 µM |

Results, then the binder that gave them:

| Kd | Binder |
| --- | --- |
| 0.267 µM | Ac-VMKCWWDEEMLCEAF-NH2 (disulfide 4-12 (inferred)) [SYN1538] |
| 0.572 µM | Ac-VMKCWWDEEMLCRAV-NH2 (disulfide 4-12 (inferred); not fully specified) [SYN1540A] |
| 2.6 µM | Ac-VMKCFWDEEMLCRAF-NH2 (disulfide 4-12 (inferred)) [SYN1535] |
| 0.162 µM | Ac-VMRCWWDEEMLCRAF-NH2 (disulfide 4-12 (inferred)) [SYN1534] |
| 0.37 µM | Ac-VMHCFWDEEFKCEQG-NH2 (disulfide 4-12 (inferred)) [SYN1258] |
| 0.06 µM | Ac-VMHCFWDEEFRCDYG-NH2 (disulfide 4-12 (inferred)) [SYN1381] |
| 1.45 µM | Ac-VMHCFWDEGFKCDQG-NH2 (disulfide 4-12 (inferred)) [SYN1257] |
| 1.76 µM | Ac-YMTCKWDDGFSCEAV-NH2 (disulfide 4-12 (inferred)) [SYN1155] |
| 1.54 µM | Ac-YMTCKWADGFSCEYV-NH2 (disulfide 4-12 (inferred)) [SYN1149] |
| 1.21 µM and 1.17 µM | Ac-MTCKWDDGFSCEYV-NH2 (disulfide 3-11 (inferred)) [SYN1161] |

Target: T1, soluble human FcRn (shFcRn)
Assay: SPR (Biacore), Kd pH 7.4 divided by Kd pH 6.0

| Binder | Kd Ratio 7.4/6.0 |
| --- | --- |
| Ac-VMKCWWDEEMLCRAF-NH2 (disulfide 4-12 (inferred)) [SYN1532] | 112 |
| Ac-VMKCWWDEEMLCRYF-NH2 (disulfide 4-12 (inferred)) [SYN1539] | 83 |
| Ac-VMHCWWDEEMLCRAF-NH2 (disulfide 4-12 (inferred)) [SYN1533] | 106 |
| Ac-VMHCFWDEEFKCDQG-NH2 (disulfide 4-12 (inferred)) [SYN1197] | 84 |
| Ac-VMHCFWDEAFRCDQG-NH2 (disulfide 4-12 (inferred)) [SYN1382] | 25 |
| Ac-VMHCFWDEEFKCDYG-NH2 (disulfide 4-12 (inferred)) [SYN1259] | 132 |
| Ac-VMHCFWDEAFKCDQG-NH2 (disulfide 4-12 (inferred)) [SYN1216] | 52 |
| Ac-VMHCFWDEEFKCDQV-NH2 (disulfide 4-12 (inferred)) [SYN1260] | 73 |
| Ac-YMHCFWDEEFKCDQG-NH2 (disulfide 4-12 (inferred)) [SYN1256] | 69 |
| Ac-AGVMKCWWDEEMLCRAFGTGGGK-NH2 (disulfide 6-14 (inferred)) [SYN531] | 99 |
| Ac-AMTCKWDDGFSCEYV-NH2 (disulfide 4-12 (inferred)) [SYN1144] | 23.3 |
| Ac-YMTCKWDDAFSCEYV-NH2 (disulfide 4-12 (inferred)) [SYN1151] | 25 |
| Ac-YMTCKWDDGFSCEYA-NH2 (disulfide 4-12 (inferred)) [SYN1156] | 38 |
| Ac-YMTCKWDDGFSCAYV-NH2 (disulfide 4-12 (inferred)) [SYN1154] | 20 |

The next lines start with the values.

| Kd Ratio 7.4/6.0 | Binder |
| --- | --- |
| 71 | Ac-VMKCWWDEEMLCEAF-NH2 (disulfide 4-12 (inferred)) [SYN1538] |
| 80 | Ac-VMKCWWDEEMLCRAV-NH2 (disulfide 4-12 (inferred); not fully specified) [SYN1540A] |
| 35 | Ac-VMKCFWDEEMLCRAF-NH2 (disulfide 4-12 (inferred)) [SYN1535] |
| 125 | Ac-VMRCWWDEEMLCRAF-NH2 (disulfide 4-12 (inferred)) [SYN1534] |
| 65 | Ac-VMHCFWDEEFKCEQG-NH2 (disulfide 4-12 (inferred)) [SYN1258] |
| 82 | Ac-VMHCFWDEEFRCDYG-NH2 (disulfide 4-12 (inferred)) [SYN1381] |
| 9.8 | Ac-YMTCKWDDGFSCEAV-NH2 (disulfide 4-12 (inferred)) [SYN1155] |
| 7.8 | Ac-YMTCKWADGFSCEYV-NH2 (disulfide 4-12 (inferred)) [SYN1149] |

Target: T1, soluble human FcRn (shFcRn)
Assay: SPR (Biacore), immobilized shFcRn, pH 6, steady-state fit
Remark: another data set of the same source

| Binder | Kd [µM] |
| --- | --- |
| Ac-AYFCTKWKHGWCEEV-NH2 (disulfide 4-12 (inferred)) [SYN1542] | 13.8 |
| Ac-RAFCTKWKHGWCEEV-NH2 (disulfide 4-12 (inferred)) [SYN1543] | 67.5 |
| Ac-RYFCTKWKAGWCEEV-NH2 (disulfide 4-12 (inferred)) [SYN1549] | 27.4 |
| Ac-RYFCTKWAHGWCEEV-NH2 (disulfide 4-12 (inferred)) [SYN1548] | 9.3 |
| Ac-RYFCAKWKHGWCEEV-NH2 (disulfide 4-12 (inferred)) [SYN1545] | 9.3 |

Second part, the binder after the results:

| Kd [µM] | Binder |
| --- | --- |
| 7.7 | Ac-RYACTKWKHGWCEEV-NH2 (disulfide 4-12 (inferred)) [SYN1544] |
| 14.2 | Ac-RYFCTAWKHGWCEEV-NH2 (disulfide 4-12 (inferred)) [SYN1546] |

Target: T1, soluble human FcRn (shFcRn)
Assay: SPR (Biacore), immobilized shFcRn, pH 7.4

| Binder | Kd [µM] |
| --- | --- |
| Ac-VMKCWWDEEMLCRAF-NH2 (disulfide 4-12 (inferred)) [SYN1532] | 17.3 |
| Ac-VMKCWWDEEMLCRYF-NH2 (disulfide 4-12 (inferred)) [SYN1539] | 8.6 |
| Ac-VMHCWWDEEMLCRAF-NH2 (disulfide 4-12 (inferred)) [SYN1533] | 59.1 |
| Ac-VMHCFWDEEFKCDQG-NH2 (disulfide 4-12 (inferred)) [SYN1197] | 62 |
| Ac-VMHCFWDEAFRCDQG-NH2 (disulfide 4-12 (inferred)) [SYN1382] | 112 |
| Ac-VMHCFWDEEFKCDYG-NH2 (disulfide 4-12 (inferred)) [SYN1259] | 12 |
| Ac-VMHCFWDEAFKCDQG-NH2 (disulfide 4-12 (inferred)) [SYN1216] | 186 |
| Ac-VMHCFWDEEFKCDQV-NH2 (disulfide 4-12 (inferred)) [SYN1260] | 22 |
| Ac-YMHCFWDEEFKCDQG-NH2 (disulfide 4-12 (inferred)) [SYN1256] | 50 |
| Ac-AGVMKCWWDEEMLCRAFGTGGGK-NH2 (disulfide 6-14 (inferred)) [SYN531] | 44.4 |
| Ac-AMTCKWDDGFSCEYV-NH2 (disulfide 4-12 (inferred)) [SYN1144] | 29.1 |
| Ac-YMTCKWDDAFSCEYV-NH2 (disulfide 4-12 (inferred)) [SYN1151] | 20.7 |
| Ac-YMTCKWDDGFSCEYA-NH2 (disulfide 4-12 (inferred)) [SYN1156] | 22 |
| Ac-YMTCKWDDGFSCAYV-NH2 (disulfide 4-12 (inferred)) [SYN1154] | 9.2 |

Further lines, results first:

| Kd [µM] | Binder |
| --- | --- |
| 18.9 | Ac-VMKCWWDEEMLCEAF-NH2 (disulfide 4-12 (inferred)) [SYN1538] |
| 45.7 | Ac-VMKCWWDEEMLCRAV-NH2 (disulfide 4-12 (inferred); not fully specified) [SYN1540A] |
| 91.3 | Ac-VMKCFWDEEMLCRAF-NH2 (disulfide 4-12 (inferred)) [SYN1535] |
| 20.2 | Ac-VMRCWWDEEMLCRAF-NH2 (disulfide 4-12 (inferred)) [SYN1534] |
| 24 | Ac-VMHCFWDEEFKCEQG-NH2 (disulfide 4-12 (inferred)) [SYN1258] |
| 4.9 | Ac-VMHCFWDEEFRCDYG-NH2 (disulfide 4-12 (inferred)) [SYN1381] |
| 40 | Ac-VMHCFWDEGFKCDQG-NH2 (disulfide 4-12 (inferred)) [SYN1257] |
| 17.3 | Ac-YMTCKWDDGFSCEAV-NH2 (disulfide 4-12 (inferred)) [SYN1155] |
| 12 | Ac-YMTCKWADGFSCEYV-NH2 (disulfide 4-12 (inferred)) [SYN1149] |
